To fix the notation:
B1: Azoarcus group I ribozyme (parent)
chain: GUGCCUUGCGCCGGGAAACCACGCAAGGGAUGGUGUCAAAUUCGGCGAAACCUAAGCGCCCGCCCGGGCGUAUGGCAACGCCGAGCCAAGCUUCGGCGCCUGCGCCGAUGAAGGUGUAGAGACUAGACGGCACCCACCUAAGGCAAACGCUAUGGUGAAGGCAUAGUCCAGGGAGUGGCGAAAGUCACACAAACCGG

Variants of B1 are the subject of this data set. The data set can be described thus: reverse-splicing fitness (ratio to wild type); higher = more active; in vitro selection; Mg2+ level not given. The essentials:
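An in vitro group I ribozyme library with randomized positions was T7-transcribed and gel-purified. In triplicate, 10 pmol RNA in EPPS pH 7.5 was reacted with 50 pmoles of a 30-nt RNA substrate for 1 h at 37 °C across several added MgCl2 levels (1–48 mM), then stopped with EDTA. Products were reverse transcribed from a substrate-complementary primer, PCR-amplified and sequenced (HiSeq 4000). Fitness is a variant's read proportion after selection over that before, normalised to wild type.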
In the case of A120G A145G C150A C169U, the reverse-splicing fitness was 0.107.
To A120G A145G C150A C169A belongs 0.0788; to A120U A145C C150A C169U U176A, 0.00859; to A120U A145C C150A C169U U176G, 0.00358.
Then A120U A145C C150A C169U U176C, with 0.00371; and A120G A145U C169G U176C, with 0.264; and A120G A145U C169G U176G, with 0.0156.
To A120G A145U C169G U176A belongs 0.206; to A120G C169A U176A, 0.112.
Take A120G C169A U176C: the reverse-splicing fitness was found to be 0.189.
To A120G C169A U176G belongs 0.00677; to A120G C150U C169A U176G, 0.00612.
To A120G C150U C169A U176C belongs 0.126.
To A120G C150U C169A U176A belongs 0.0776.
Take A120G A145U C150U C169A U176G: the reverse-splicing fitness came to 0.00609.
Then A120G A145U C150U C169A U176A, with 0.08; and A120G A145U C150U C169A U176C, with 0.14.
Then A120C U176G, with 0.244.
Then A120C U176A, with 0.663.
Consider A120C U176C, for which the reverse-splicing fitness was found to be 0.714.
To A120G A145G C150A C169U U176G belongs 0.00665.
On to A120G A145G C150A C169U U176C, for which the reverse-splicing fitness is 0.0707.
To A120G A145G C150A C169U U176A belongs 0.0726; to A120G A145C C150G C169A U176G, 0.00448.
To A120G A145C C150G C169A U176C belongs 0.031; to A120G A145C C150G C169A U176A, 0.016; to A120G A145G C150U C169A U176G, 0.0072.
To A120G A145G C150U C169A U176A belongs 0.0867.
In the case of A120G A145G C150U C169A U176C, the reverse-splicing fitness came out at 0.157.
As for A120G A145G C150G C169A, the reverse-splicing fitness worked out at 0.0607.
For A120G A145G C150G C169G, the reverse-splicing fitness is 0.106.
As for A120G A145G C150G C169U, the reverse-splicing fitness was determined as 0.094.
Then A120G A145U C150U C169G U176G, with 0.00892; and A120G A145U C150U C169G U176C, with 0.207.
Then A120G A145U C150U C169G U176A, with 0.157; and A120C C169U U176C, with 0.174; and A120C C169U U176G, with 0.0174.
To A120C C169U U176A belongs 0.155.
Take A120C C150A U176A: the reverse-splicing fitness is 0.184.
Then A120C C150A U176C, with 0.195; and A120C C150A U176G, with 0.0764.
For the variant A120G A145G C150G, the reverse-splicing fitness worked out at 0.088.
A120G A145G C150A: the reverse-splicing fitness was determined as 0.0988.
Then A120G A145G C150U, with 0.436; and A120C C150G C169A U176A, with 0.0108.
To A120C C150G C169A U176G belongs 0.00553; to A120C C150G C169A U176C, 0.00991; to A120G C169U, 0.418.
With A120G C169A, the reverse-splicing fitness was 0.444.
Then A120G C169G, with 0.64.
To A120C C169G U176A belongs 0.016; to A120C C169G U176C, 0.0166.
Then A120C C169G U176G, with 0.0039; and A120G A145G C169A U176G, with 0.00693.
Take A120G A145G C169A U176C: the reverse-splicing fitness stood at 0.185.
Then A120G A145G C169A U176A, with 0.114.
Then A120G, with 0.549; and A120U, with 0.858; and A120G A145G C169G U176G, with 0.0103.
Turning to A120G A145G C169G U176C, the reverse-splicing fitness amounted to 0.268.
Consider A120G A145G C169G U176A, for which the reverse-splicing fitness stood at 0.221.
To A120G C169G U176A belongs 0.209.
To A120G C169G U176C belongs 0.261; to A120G C169G U176G, 0.0117; to A120C C150G C169G U176C, 0.00463.
To A120C C150G C169G U176A belongs 0.0074; to A120C C150G C169G U176G, 0.0036.
For A120G A145U C150G C169U U176G, the reverse-splicing fitness was found to be 0.00602.
To A120G A145U C150G C169U U176C belongs 0.0556.
To A120G A145U C150G C169U U176A belongs 0.0333; to A120G A145C C150G C169U U176C, 0.054.
Then A120G A145C C150G C169U U176G, with 0.00576.
Consider A120G A145C C150G C169U U176A, for which the reverse-splicing fitness was found to be 0.0356.
Then A120C C150U U176G, with 0.181; and A120C C150U U176A, with 0.643.
Then A120C C150U U176C, with 0.596.
Regarding A120G A145U C150G C169A, the reverse-splicing fitness turned out to be 0.0517.
To A120G A145U C150G C169U belongs 0.0748; to A120G A145U C150G C169G, 0.0994.
Then A120G A145C C150A C169U, with 0.0377; and A120G A145C C150A C169G, with 0.0475; and A120G A145C C150A C169A, with 0.029.
Then A120G A145C C150U C169G U176A, with 0.102; and A120G A145C C150U C169G U176G, with 0.00726.
In the case of A120G A145C C150U C169G U176C, the reverse-splicing fitness stood at 0.107.
Then A120G U176G, with 0.0139; and A120G U176C, with 0.222.
Regarding A120G U176A, the reverse-splicing fitness amounted to 0.213.
To A120G A145C C150A C169U U176G belongs 0.00621.
Consider A120G A145C C150A C169U U176C, for which the reverse-splicing fitness was 0.0294.
To A120G A145C C150A C169U U176A belongs 0.0398; to A120G A145U C150G C169G U176C, 0.011; to A120G A145U C150G C169G U176G, 0.00487.
To A120G A145U C150G C169G U176A belongs 0.024.
To A120C C169A U176A belongs 0.0173; to A120C C169A U176C, 0.0233; to A120C C169A U176G, 0.00454.
Consider A120G A145U C150U C169U, for which the reverse-splicing fitness came to 0.33.
To A120G A145U C150U C169A belongs 0.33.
Then A120G A145U C150U C169G, with 0.487; and A120G A145U C150U C169U U176A, with 0.14.
For A120G A145U C150U C169U U176C, the reverse-splicing fitness came to 0.162.
Then A120G A145U C150U C169U U176G, with 0.0135.
To A120G C150A C169U U176G belongs 0.00851; to A120G C150A C169U U176C, 0.0621.
Then A120G C150A C169U U176A, with 0.0635.
Consider A120G C150U C169U U176A, for which the reverse-splicing fitness turned out to be 0.136.
Then A120G C150U C169U U176C, with 0.159; and A120G C150U C169U U176G, with 0.011.
For A120G A145C C150U C169A U176G, the reverse-splicing fitness is 0.00586.
Then A120G A145C C150U C169A U176A, with 0.0422; and A120G A145C C150U C169A U176C, with 0.0659; and A120C C150G C169U U176G, with 0.00544.
Then A120C C150G C169U U176A, with 0.0117.
Take A120C C150G C169U U176C: the reverse-splicing fitness was 0.0388.
Then A120G A145C C150A U176C, with 0.0279; and A120G A145C C150A U176A, with 0.027.
To A120G A145C C150A U176G belongs 0.00611; to A120U A145C, 0.787; to A120G A145U U176A, 0.197.
To A120G A145U U176G belongs 0.0162.
As to A120G A145U U176C, the reverse-splicing fitness came out at 0.269.
To A120G C150U C169A belongs 0.29; to A120G C150U C169U, 0.284; to A120G C150U C169G, 0.419.
To A120G C169U U176A belongs 0.179; to A120G C169U U176G, 0.0211.
As to A120G C169U U176C, the reverse-splicing fitness was determined as 0.204.
To A120G A145G C150U C169G U176C belongs 0.216.
To A120G A145G C150U C169G U176G belongs 0.00838; to A120G A145G C150U C169G U176A, 0.149; to A120G C150G U176G, 0.00499.
As for A120G C150G U176C, the reverse-splicing fitness stood at 0.0392.
Take A120G C150G U176A: the reverse-splicing fitness stood at 0.0287.
To A120C C150U C169U U176A belongs 0.118.
Then A120C C150U C169U U176C, with 0.143.
Regarding A120C C150U C169U U176G, the reverse-splicing fitness was 0.0106.
To A120G A145U C169U U176A belongs 0.174; to A120G A145U C169U U176G, 0.0221.
To A120G A145U C169U U176C belongs 0.194; to A120C C150G C169G, 0.00811.
Then A120C C150G C169U, with 0.0809; and A120C C150G C169A, with 0.0115; and A120G C150A U176G, with 0.0094.
Consider A120G C150A U176C, for which the reverse-splicing fitness came out at 0.058.
As for A120G C150A U176A, the reverse-splicing fitness came to 0.0445.
To A120U A145C C150A C169G U176C belongs 0.0032; to A120U A145C C150A C169G U176A, 0.00491; to A120U A145C C150A C169G U176G, 0.00221.
In the case of A120G A145G, the reverse-splicing fitness came out at 0.503.
Then A120G A145U, with 0.508; and A120G A145C, with 0.479.
Then A120G C150G C169G U176G, with 0.00469; and A120G C150G C169G U176A, with 0.0132.
To A120G C150G C169G U176C belongs 0.00733.
With A120G A145C C169G U176G, the reverse-splicing fitness was found to be 0.0119.
Then A120G A145C C169G U176C, with 0.235; and A120G A145C C169G U176A, with 0.202.
To A120G A145C C169A U176A belongs 0.0967.
Then A120G A145C C169A U176G, with 0.0075.
In the case of A120G A145C C169A U176C, the reverse-splicing fitness was 0.157.
Take A120G A145U C150G U176A: the reverse-splicing fitness is 0.0351.
Then A120G A145U C150G U176G, with 0.00612; and A120G A145U C150G U176C, with 0.0502.
To A120G C150G C169U U176G belongs 0.00662.
To A120G C150G C169U U176C belongs 0.0422; to A120G C150G C169U U176A, 0.0245.

(Values after the RNAGym collection of RNA variant scans (doi:10.1093/molbev/msab373).)
